Patent US11078465B2, “Alcohol dehydrogenase mutant and application thereof in synthesis of diaryl chiral alcohols” (Jiangnan University, priority 2018, dated 2021)

Assays:
Format in all cases: biochemical
[1] = system: O=C(c1ccc(Cl)cc1)c1ccccn1; experiment: Kinetic analysis of alcohol dehydrogenase mutant (CPMK reduction, NADPH absorption at 340 nm); conditions: substrate CPMK, pH 7.0, 30° C.
Experimental: (§1) Adopting a total reaction system of 200 μL, including: 1.0 mM NADPH, 1.0 mM substrate CPMK and sodium phosphate buffer (PBS, 100 mM, pH 7.0), fully and evenly mixing, maintaining at 30° C. for 2 min, adding an appropriate amount of enzyme solution, and detecting the change in light absorption at 340 nm.
(§2) The enzyme activity was calculated by the following formula: Enzyme activity (U)=EW×V×10^3/(6220×I);
(§3) in the formula, EW is the change in absorbance at 340 nm in 1 min; V is the volume of a reaction solution in mL; 6220 is the molar extinction coefficient of NADPH in L/mol·cm); and 1 is the optical path distance in cm. One activity unit (U) corresponds to the amount of enzyme required to catalyze the oxidation of 1 μmol NADPH per minute under the above conditions.
(§4) A column used for purification was a nickel affinity column HisTrap FF crude, and purification was achieved through affinity chromatography using a histidine tag on recombinant protein. The nickel column was equilibrated with a solution A first, a crude enzyme solution was loaded, a penetrating peak was further eluted off using the solution A, and after equilibrium, a solution B (20 mM sodium phosphate, 500 mM NaCl, and 1000 mM imidazole, pH 7.4) was used for gradient elution to elute off the recombinant protein bound to the nickel column, so as to obtain the recombinant alcohol dehydrogenase mutant. The purified protein was subjected to activity measurement (CPMK as substrate, and NADPH as coenzyme) and SDS-PAGE analysis. […] The purified alcohol dehydrogenase protein was then replaced into a Tris-HCl (100 mM, pH 7.0) buffer using a Hi Trap Desalting column (GE Healthcare).
(§5) The activity of KpADH at different substrate concentrations and coenzyme concentrations was determined, and a double reciprocal curve was made based on the reciprocal of activity and substrate concentration to calculate kinetic parameters.
Two mutants of S237A and S237C valuable for modification of asymmetric synthesis R- and S- are obtained by random mutation screening, and the two sites are used as templates for random mutation. […] It can be known by combining the data in Tables 2 and 3 that the 214 site of alcohol dehydrogenase is a site that is important for determining selectivity improvement and inversion.

[2] = system: O=C(c1ccc(Cl)cc1)c1ccccn1; experiment: Kinetic analysis of alcohol dehydrogenase (CPMK reduction, NADPH absorption at 340 nm); conditions: other: WT, substrate CPMK, pH 7.0, 30° C.
Experimental: as §1, §2, §3, §4, §5

[3] = system: O=C(c1ccc(Cl)cc1)c1ccccn1; experiment: Kinetic analysis of alcohol dehydrogenase mutant (CPMK reduction, NADPH absorption at 340 nm); conditions: other: E214G/S237C, substrate CPMK, pH 7.0, 30° C.
[4] = Stereoselectivity on different substrates; conditions: configuration in brackets
Outline: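 Reaction mixture extracted with ethyl acetate, dried organic phase redissolved in ethanol, then analysed by chiral liquid chromatography and gas chromatography. Values are transformation rate and ee, with ee from LC molar concentrations of (S)- and (R)-CPMA. Substrates were prochiral ketones reduced by alcohol dehydrogenase mutants.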

[5] = Stereoselectivity (ee) of CPMK reduction, chiral liquid chromatography; conditions: product configuration in brackets
Outline: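 Reaction mixture extracted with ethyl acetate, solvent evaporated, residue taken up in ethanol. Chiral LC and GC give conversion and ee, with ee computed from LC molar concentrations of (S)- and (R)-CPMA.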

[6] = Substrate specificity, specific activity
Outline: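 Reductions by alcohol dehydrogenase mutants run with 1.0 mM NADPH and 1.0 mM prochiral carbonyl substrate (e.g., CPMK) in 100 mM sodium phosphate, pH 7.0, at 30° C. Activity followed as absorbance change at 340 nm; 1 U oxidises 1 μmol NADPH per minute, calculated using ε 6220 L/mol·cm.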

[7] = Kinetic analysis of alcohol dehydrogenase and mutants (NADPH oxidation, 340 nm, double reciprocal curve); conditions: substrate CPMK
Outline: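 His-tagged recombinant KpADH (wild type or mutant) purified by nickel affinity, desalted into Tris-HCl pH 7.0. Activity measured at 30° C in 100 mM sodium phosphate pH 7.0 with 1.0 mM NADPH and 1.0 mM CPMK by 340 nm NADPH absorbance decrease; kinetic parameters from double reciprocal plots over varied substrate and coenzyme concentrations.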

[8] = Asymmetric reduction in 20 mL biocatalytic system, conversion
[9] = Stereoselectivity on different substrates; conditions: configuration in brackets; remark: listed apart in the source
Outline: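 Alcohol dehydrogenase mutants reduced prochiral ketones, including CPMK, aryl pyridyl and diaryl ketones, acetophenones and keto esters. Reactions were extracted into ethyl acetate and redissolved in ethanol. Conversion and ee were determined by chiral liquid and gas chromatography, with ee calculated from (S)- and (R)-CPMA molar concentrations.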

With “alcohol dehydrogenase KpADH (SEQ ID No. 2) mutant H249Y/S237C (Vanderwaltozyma polyspora DSM 70294; H249Y/S237C)” the Km ([1]; other: H249Y/S237C) was 980 ± 20 µM, the Vmax ([1]; other: H249Y/S237C) was 16.5 µM/min/mg and the kcat ([1]; other: H249Y/S237C) was 11 ± 0.83 s⁻¹. The kcat/Km ([1]; other: H249Y/S237C) was 11200 ± 980 M⁻¹ s⁻¹.

With “alcohol dehydrogenase KpADH (SEQ ID No. 2) mutant L60F/S237C (Vanderwaltozyma polyspora DSM 70294; L60F/S237C)” the Km ([1]; other: L60F/S237C) was 1120 ± 20 µM, the Vmax ([1]; other: L60F/S237C) was 12.6 µM/min/mg and the kcat ([1]; other: L60F/S237C) was 8.4 ± 0.23 s⁻¹. For the same molecule, the kcat/Km ([1]; other: L60F/S237C) was 7500 ± 690 M⁻¹ s⁻¹.

In the case of “alcohol dehydrogenase KpADH, wild type (WT), SEQ ID No. 2 (Vanderwaltozyma polyspora DSM 70294)”, the Km [2] is reported as 760 ± 190 µM, the Vmax [2] is reported as 21.3 µM/min/mg and the kcat [2] is reported as 14.2 ± 1.16 s⁻¹. For the same molecule, the kcat/Km [2] was 18700 ± 620 M⁻¹ s⁻¹.

“alcohol dehydrogenase KpADH (SEQ ID No. 2) mutant A269C/S237C (Vanderwaltozyma polyspora DSM 70294; A269C/S237C)” showed a Km ([1]; other: A269C/S237C) of 1560 ± 20 µM, a Vmax ([1]; other: A269C/S237C) of 22.6 µM/min/mg and a kcat ([1]; other: A269C/S237C) of 15.4 ± 0.86 s⁻¹. The kcat/Km ([1]; other: A269C/S237C) was 9900 ± 360 M⁻¹ s⁻¹.

Work on “alcohol dehydrogenase KpADH (SEQ ID No. 2) mutant S237C (Vanderwaltozyma polyspora DSM 70294; S237C)” yielded a Km ([1]; other: S237C) of 1010 ± 100 µM, a Vmax ([1]; other: S237C) of 20.9 µM/min/mg and a kcat ([1]; other: S237C) of 13.9 ± 0.99 s⁻¹. For the same molecule, the kcat/Km ([1]; other: S237C) was 13800 ± 250 M⁻¹ s⁻¹.

Molecule “alcohol dehydrogenase KpADH (SEQ ID No. 2) mutant M12, E214G/S237C (Vanderwaltozyma polyspora DSM 70294; E214G/S237C)” has a Km [3] of 310 ± 20 µM, a Vmax [3] of 9.54 µM/min/mg and a kcat [3] of 6.3 ± 0.11 s⁻¹. It also gave a kcat/Km [3] of 22100 ± 1370 M⁻¹ s⁻¹.

In the case of “alcohol dehydrogenase KpADH (SEQ ID No. 2) mutant S237A (Vanderwaltozyma polyspora DSM 70294; S237A)”, the Km ([1]; other: S237A) is reported as 580 ± 30 µM, the Vmax ([1]; other: S237A) is reported as 36.5 µM/min/mg and the kcat ([1]; other: S237A) is reported as 24.4 ± 1.26 s⁻¹. It also gave a kcat/Km ([1]; other: S237A) of 42000 ± 2360 M⁻¹ s⁻¹.

B1: E214Y/S237A: tyrosine for glutamate at position 214 and alanine for serine at position 237 of SEQ ID No. 2 (protein)
chain: MSVLISGASGYIAKHIVRVLLEQNYKVIGTVRSQDKADKLLKQYNNPNLSYEIVPEIANLDAFDDIFKKHGKEIKYVIHAASPVNFGAKDLEKDLVIPAINGTKNMFEAIKKYAPDTVERVVMTASYASIMTPHRQNDPTLTLDEETWNPVTEENAYENVFTAYCASKTFAEKEAWKFVKENSDAVKFKLTTIHPSFVFGPQNFDEDVTKKLNYTCEIINGLLHAPFDTKVEKTHFAQFIDVRDVAKTHVLGFQKDELINQRLLLCNGAFSQQDIVNVFNEDFPELKGQFPPEDKDTDLNKGVTGCKIDNEKTKKLLAFEFTPFHKTIHDTVYQILHKEGRV
modifications: Protein translated from synthetic DNA
In the case of B1, the “Stereoselectivity (ee)” value ([4]; substrate [drawing 13]) is reported as 18.2 (R), the “Stereoselectivity (ee)” value ([4]; substrate [drawing 14], likely CPMK (values partly match Table 4)) is reported as 99.1 (R) and the “Stereoselectivity (ee)” value ([4]; substrate [drawing 15]) is reported as 89.3 (S). The “Stereoselectivity (ee)” value ([4]; substrate [drawing 18]) was 79.3 (S), the e.e. [5] was 99.1 (R) and the specific activity ([6]; substrate [drawing 1]) was 0.26 U/mg. It also gave a specific activity ([6]; substrate [drawing 2]) of 0.25 U/mg, a specific activity ([6]; substrate [drawing 3]) of 2.25 U/mg and a specific activity ([6]; substrate [drawing 4]) of 4.06 U/mg. For the same molecule, the specific activity ([6]; substrate [drawing 5]) was 14.48 U/mg, the specific activity ([6]; substrate [drawing 6], 4-chlorophenacyl chloride) was 25.70 U/mg and the specific activity ([6]; substrate [drawing 7]) was 22.02 U/mg. For the same molecule, the specific activity ([6]; substrate [drawing 8]) was 22.61 U/mg, the specific activity ([6]; substrate [drawing 9], ethyl 4-chloro-3-oxobutanoate) was 7.74 U/mg and the Kcat [7] was 15.80 ± 0.25 s⁻¹. The Km [7] was 620 ± 20 µM, the Vmax [7] was 23.70 ± 0.37 µM/min/mg and the Conversion rate ([8]; 4-nitroacetophenone 10 mM, 1 h) was 32%. It also gave a Conversion rate ([8]; 4-nitroacetophenone 10 mM, 2 h) of 48%, a Conversion rate ([8]; 4-nitroacetophenone 10 mM, 3 h) of 60% and a Conversion rate ([8]; 4-nitroacetophenone 10 mM, 4 h) of 85%. The Conversion rate ([8]; 4-nitroacetophenone 10 mM, 6 h) was 95%, the Conversion rate ([8]; 4-nitroacetophenone 10 mM, 8 h) was 99.8% and the Conversion rate ([8]; 4-nitroacetophenone 10 mM, 12 h) was over 99.9%. For the same molecule, the Conversion rate ([8]; 4-nitroacetophenone 10 mM, 24 h) was over 99.9%, the Conversion rate ([8]; 4-nitroacetophenone 20 mM, 1 h) was 22% and the Conversion rate ([8]; 4-nitroacetophenone 20 mM, 2 h) was 35.5%. It also gave a Conversion rate ([8]; 4-nitroacetophenone 20 mM, 3 h) of 55.8%, a Conversion rate ([8]; 4-nitroacetophenone 20 mM, 4 h) of 69.5% and a Conversion rate ([8]; 4-nitroacetophenone 20 mM, 6 h) of 90.4%. It also gave a Conversion rate ([8]; 4-nitroacetophenone 20 mM, 8 h) of 95.6%, a Conversion rate ([8]; 4-nitroacetophenone 20 mM, 12 h) of 99.2% and a Conversion rate ([8]; 4-nitroacetophenone 20 mM, 24 h) of 99.5%. The Conversion rate ([8]; 4-nitroacetophenone 50 mM, 1 h) was 10.5%, the Conversion rate ([8]; 4-nitroacetophenone 50 mM, 2 h) was 22.5% and the Conversion rate ([8]; 4-nitroacetophenone 50 mM, 3 h) was 35.9%. It also gave a Conversion rate ([8]; 4-nitroacetophenone 50 mM, 4 h) of 49.5%, a Conversion rate ([8]; 4-nitroacetophenone 50 mM, 6 h) of 60.9% and a Conversion rate ([8]; 4-nitroacetophenone 50 mM, 8 h) of 82.6%. The Conversion rate ([8]; 4-nitroacetophenone 50 mM, 12 h) was 85.5%, the Conversion rate ([8]; 4-nitroacetophenone 50 mM, 24 h) was 86.5% and the “ee in asymmetric synthesis of (R)-CPMA” value ([8]; 20 mL biocatalytic system, 30° C., pH 7.5) was 99.1%. For the same molecule, the Conversion rate ([8]; CPMK 100 mM, 1 h) was 66%, the Conversion rate ([8]; CPMK 100 mM, 2 h) was 80% and the Conversion rate ([8]; CPMK 100 mM, 3 h) was 89.5%. The Conversion rate ([8]; CPMK 100 mM, 4 h) was 94%, the Conversion rate ([8]; CPMK 100 mM, 6 h) was 96.6% and the Conversion rate ([8]; CPMK 100 mM, 8 h) was 99.5%. The Conversion rate ([8]; CPMK 100 mM, 12 h) was over 99.9%, the Conversion rate ([8]; CPMK 100 mM, 24 h) was over 99.9% and the Conversion rate ([8]; CPMK 200 mM, 1 h) was 45.5%. The Conversion rate ([8]; CPMK 200 mM, 2 h) was 65.5%, the Conversion rate ([8]; CPMK 200 mM, 3 h) was 75.9% and the Conversion rate ([8]; CPMK 200 mM, 4 h) was 88.8%. It also gave a Conversion rate ([8]; CPMK 200 mM, 6 h) of 95.6%, a Conversion rate ([8]; CPMK 200 mM, 8 h) of 99.1% and a Conversion rate ([8]; CPMK 200 mM, 12 h) of 99.7%. The Conversion rate ([8]; CPMK 200 mM, 24 h) was over 99.9%, the Conversion rate ([8]; CPMK 500 mM, 1 h) was 25.5% and the Conversion rate ([8]; CPMK 500 mM, 2 h) was 33.5%. The Conversion rate ([8]; CPMK 500 mM, 3 h) was 45.8%, the Conversion rate ([8]; CPMK 500 mM, 4 h) was 59.9% and the Conversion rate ([8]; CPMK 500 mM, 6 h) was 77.9%. The Conversion rate ([8]; CPMK 500 mM, 8 h) was 90.2%, the Conversion rate ([8]; CPMK 500 mM, 12 h) was 95.7% and the Conversion rate ([8]; CPMK 500 mM, 24 h) was 99.5%. For the same molecule, the “substrate concentration that could be afforded” value ([8]; p-nitrobenzophenone) was 20 mM, the “Stereoselectivity (ee)” value ([9]; substrate [drawing 10], acetophenone) was 32.1 (R) and the “Stereoselectivity (ee)” value ([9]; substrate [drawing 11], 4-chloroacetophenone) was 97.9 (R). The “Stereoselectivity (ee)” value ([9]; substrate [drawing 12], 4-chlorobenzoyl chloride) was 61.6 (R), the “Stereoselectivity (ee)” value ([9]; substrate [drawing 16], (4-bromophenyl)-(phenyl)-methanone) was 98.5 (S) and the “Stereoselectivity (ee)” value ([9]; substrate [drawing 17], p-nitrobenzophenone) was 99.2 (S).
